Changes are numbered by the printed parent chain.
Experiments:
[1] = target: NStr-M35_S, short M35 (aa 2 to 452) with N-terminal Twin-Strep tag and TEV site (murine cytomegalovirus (MCMV)); assay: SEC-MALS; 100 μg protein on Superdex 200 Increase 10/300 in 50 mM Tris pH 7.4, 10% glycerol, 250 mM NaCl, 1 mM DTT
M35_S [2] = target: T1, M35_S (murine cytomegalovirus (MCMV) strain …, UniProt D3XDM4 2-452); assay: EMSA; 1 uM M35_S; settings: protein: recombinant; tags: N-terminal Twin-Strep tag removed by TEV (GS remnant likely); chain copies: 2; label: 5'-biotin on both strands; 5' overhang 1 nt each end, 56 bp
T1 sequence: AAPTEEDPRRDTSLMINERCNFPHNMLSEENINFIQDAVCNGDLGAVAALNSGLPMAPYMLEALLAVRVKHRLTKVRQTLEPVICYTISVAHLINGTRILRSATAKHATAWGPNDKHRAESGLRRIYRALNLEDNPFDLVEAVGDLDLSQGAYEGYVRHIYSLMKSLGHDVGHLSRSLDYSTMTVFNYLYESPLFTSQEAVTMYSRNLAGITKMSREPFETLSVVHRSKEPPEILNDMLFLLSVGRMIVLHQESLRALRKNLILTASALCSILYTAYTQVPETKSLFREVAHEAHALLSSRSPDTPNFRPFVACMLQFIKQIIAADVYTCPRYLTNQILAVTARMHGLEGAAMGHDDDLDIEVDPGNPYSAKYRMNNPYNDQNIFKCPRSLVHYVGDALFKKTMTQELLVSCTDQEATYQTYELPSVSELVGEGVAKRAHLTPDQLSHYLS

M35_S [3] = target: T1, M35_S; assay: EMSA; Hill coefficient 2.775; settings: protein: recombinant; tags: N-terminal Twin-Strep tag removed by TEV (GS remnant likely); chain copies: 2; label: 5'-biotin on both strands; 5' overhang 1 nt each end, 56 bp
M35_S [4] = target: T1, M35_S; assay: EMSA; 0.1-10 uM M35_S; second complex at 10 uM; settings: protein: recombinant; tags: N-terminal Twin-Strep tag removed by TEV (GS remnant likely); chain copies: 2; label: 5'-biotin on both strands; 5' overhang 1 nt each end, 56 bp
M35_S [5] = target: T1, M35_S; assay: EMSA; settings: protein: recombinant; tags: N-terminal Twin-Strep tag removed by TEV (GS remnant likely); chain copies: 2; label: 5'-biotin on both strands; 5' overhang 1 nt each end, 56 bp

NStr-M35_S, short M35 (aa 2 to 452) with N-terminal Twin-Strep tag and TEV site (domain or fragment)
stoichiometry N [1]: 2

B1: Bio-hIFNb 1-38 (dsDNA)
DNA 1: TAAATGACATAGGAAAACTGAAAGGGAGAAGTGAAAGTGACATGCTACGGAATGAAT
DNA 2: AATTCATTCCGTAGCATGTCACTTTCACTTCTCCCTTTCAGTTTTCCTATGTCATTT
binding result (M35_S [2]): binds

B2: Bio-mIFNb (murine IFN-b enhancer) (dsDNA)
DNA 1: AAAATGACAGAGGAAAACTGAAAGGGAGAACTGAAAGTGGGAAATTCCTCTGAGGCA
DNA 2: CTGCCTCAGAGGAATTTCCCACTTTCAGTTCTCCCTTTCAGTTTTCCTCTGTCATTT
Kd (M35_S [3]): 2060 nM

B3: Bio-hIFNb (human IFN-b enhancer) (dsDNA)
DNA 1: B2 DNA 1 with A1T, G10T, C31G, G54A, G55T, C56A, A57G
DNA 2: B2 DNA 2 with C1A, T2C, G3T, C4A, C5T, G28C, C49A
binding result (M35_S [4]): binds

B4: Bio-hIFNb 15-38 (dsDNA)
DNA 1: ATATAAGACGGAATAAACTGAAAGGGAGAAGTGAAAGTGACATGCTACGGAATGAAT
DNA 2: AATTCATTCCGTAGCATGTCACTTTCACTTCTCCCTTTCAGTTTATTCCGTCTTATA
binding result (M35_S [2]): binds

B5: Bio-scrambled (ScrHIFNb) (dsDNA)
DNA 1: ATAAGAGAACTAAGCGGAATAAGTAAGAGATGATCGGATTAGTCGCTAAGAATGAGA
DNA 2: TTCTCATTCTTAGCGACTAATCCGATCATCTCTTACTTATTCCGCTTAGTTCTCTTA
binding result (M35_S [5]): no binding

From article PMC10308904, “The Cytomegalovirus M35 Protein Directly Binds to the Interferon-β Enhancer and Modulates Transcription of Ifnb1 and Other IRF3-Driven Genes”
